{"source": "paper PMC8321654", "about": "“Heterogeneous nuclear ribonucleoprotein E1 binds polycytosine DNA and monitors genome integrity”", "target": "GST-hnRNP E1 (UniProt Q15365 1-356)", "sequence (Q15365 whole entry)": "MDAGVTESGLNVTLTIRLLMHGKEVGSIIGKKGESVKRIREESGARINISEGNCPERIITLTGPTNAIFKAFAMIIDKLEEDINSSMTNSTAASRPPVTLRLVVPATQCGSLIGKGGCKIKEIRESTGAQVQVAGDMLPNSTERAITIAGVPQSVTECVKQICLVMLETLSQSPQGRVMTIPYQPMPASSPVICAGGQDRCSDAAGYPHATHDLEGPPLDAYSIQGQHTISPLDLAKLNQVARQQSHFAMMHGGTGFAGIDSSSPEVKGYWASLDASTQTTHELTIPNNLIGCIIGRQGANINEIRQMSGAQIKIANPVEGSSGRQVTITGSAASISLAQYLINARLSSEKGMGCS", "assay": "EMSA; 25 mM Tris-HCl pH 7.6, 1 mM EDTA, 2% glycerol, 10 mM beta-ME, 50 ug/ml BSA, with or without 1.5 ng denatured E. coli DNA; 20 fmol probe in 50 ul; RT 15 min; 8-10% PAGE in 1x TBE", "conditions": "protein: recombinant; tags: GST; label: 5'-32P", "data": [{"binder": "AAUUGCUACCCAAUGCCUGGCCCAAGGGCAUUCCCAAAGCUUA (ssRNA)", "note": "[BAT RNA consensus (43 nt)]", "values": [{"measurement": "binding signal", "value": "11 fold molar excess protein for 50% shift"}]}]}
